Measurements reported in the supplement of paper PMC12042874.
± gives the uncertainty stated by the source.

Assay: amyloid nucleation score (Sup35N fusion, yeast selection) (log enrichment); library NNK1; higher = more nucleation; inactive = no reads after selection
Method in brief: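 Growth for 7 days at 30°C on medium lacking adenine and uracil followed a 24-hour induction with 100 μM copper sulfate of psi-negative yeast expressing peptides of 20 random codons fused to Sup35N. Input and output plasmid inserts were sequenced with Illumina, and sequences with under 100 input reads were excluded. Nucleation score is the DiMSum log enrichment of output over input reads, centred on the mode score of non-aggregating sequences.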

| Substance | amyloid nucleation score |
| --- | --- |
| CVIQVVLYLV | 3.83 ± 0.059 |
| CVMFLGFVYVFSSLYPT | -0.981 ± 0.63 |
| CVNIRNQKQLSFAGLVDLSV | 0.358 ± 0.59 |
| CVTAVIRDGWGWNYCCRDHR | inactive |
| CVTDIRAWFKVGLCNSDVLQ | 3.89 ± 0.096 |
| CWDLTTVCHNFNRYHSWVSR | 0.431 ± 1.1 |
| CWDSNALADGCAWYKVLMDI | 0.229 ± 0.35 |
| CWMHFPYQVESDGQTNRAFD | 0.041 ± 0.34 |
| CWRLSYGLGVTFNKMLWPWK | 0.43 ± 0.56 |
| CWVYDGRIYPHL | 1.05 ± 0.85 |
| CYKAAQGFIFSRK | 0.482 ± 0.32 |
| CYNTRVPFGMPLKRTPYRSR | -0.509 ± 1.1 |
| DAEWF | 0.393 ± 0.27 |
| DAIHVWCICRKSLVFILRNS | 0.086 ± 1 |
| DAWGTVRYSIGFKGVVAMTS | 0.149 ± 0.29 |
| DAYMMLFLYSPVWECFLMKG | -0.084 ± 0.28 |
| DCKLGISGIDLVNRFLYPCM | 1.33 ± 0.84 |
| DCLRILDGQYRRRIDRALRV | 0.09 ± 0.7 |
| DCLSSGFLDTLYVVQVRGSD | inactive |
| DCRMFDFLA | -0.444 ± 0.38 |
| DDKIVRIEDSMAASNIAFLA | 0.371 ± 0.32 |
| DDLLH | 0.387 ± 0.79 |
| DEDHFYTSRML | 0.639 ± 1.1 |
| DFAFYTVTLCFE | 0.809 ± 0.35 |
| DFCVPHGNCFLA | -0.747 ± 0.48 |

| Substance | amyloid nucleation score |
| --- | --- |
| DFGRFTGSG | -0.824 ± 2.1 |
| DFHDLSNLVTGGLLITHIL | 1.01 ± 0.58 |
| DFHTITGMANFTLSLCYSHK | -0.945 ± 1.4 |
| DFNSISDAKNCWSYLM | 1.25 ± 0.13 |
| DFSLSSPRFLFGDGCRNCNA | -0.028 ± 0.36 |
| DFVLIFLRICSCPSHTNFYL | 3.45 ± 0.12 |
| DGARDFRLRMLACSRLSRGI | 0.053 ± 0.72 |
| DGCDGCLTYAKCGYLGFY | 0.424 ± 0.67 |
| DGCIKLWGF | 0.779 ± 0.67 |
| DGCSRFRREGAEVYQRMGIG | 1.04 ± 0.85 |
| DGGAFAGRS | -1.06 ± 0.81 |
| DGRRLNLIWLYRIFWN | -0.767 ± 0.37 |
| DGSVFFKADRVPLRSSNGGI | 1.2 ± 0.52 |
| DGSVYTPVIVY | 0.207 ± 0.29 |
| DGTNSVRIASWLNIDEGAL | -0.225 ± 0.42 |
| DHITKHFIGV | inactive |
| DHSCWGAWWVHFGAHDGGWC | 1.25 ± 0.79 |
| DIALMWLLLVHRDYT | -1.07 ± 0.76 |
| DICVWDYMNRGGQLL | -0.047 ± 0.86 |
| DIRCGLDGNWVSSFVRQQGS | inactive |
| DIRMVDWVRNRVQHVADGK | -0.892 ± 0.7 |
| DIRNLLTWSISDVVTVRKIG | -0.643 ± 0.33 |
| DISMLRKKSCKHTVNMMSL | -0.431 ± 0.27 |
| DIVATYRVRISLNPNVMVTY | 0.466 ± 0.32 |
| DKELSFAKGACSKFSDSFRA | -1.45 ± 1.1 |

| Substance | amyloid nucleation score |
| --- | --- |
| DKRNVASYDSMCQLLAILFN | 0.512 ± 0.34 |
| DLAFRPVLVLQ | 0.762 ± 0.65 |
| DLAHYAW | 0.286 ± 0.45 |
| DLDKRMVSYDFKICGYKINF | 3.77 ± 0.1 |
| DLMGSWYDLRYMKGLKGK | -0.265 ± 0.13 |
| DLPLGQRYSCAQVGGWSYYE | 0.556 ± 0.45 |
| DLSNNRWWFNRFRALHYKSS | -0.358 ± 0.85 |
| DLSWSGTFSAGHGNMNFTKS | 2.53 ± 0.15 |
| DLTVWSTIFDSMSTCEHRGG | 0.257 ± 0.42 |
| DLVSVHHVNRLRCWSGCLCE | -0.532 ± 0.51 |
| DLYEAMSRNLADYRAVWGLS | inactive |
| DMDGDSLGVFWALATVYQAH | -0.551 ± 0.36 |
| DMEYGGKRHNNCSDLIITNC | -0.726 ± 1.1 |
| DMGSHIARSTKMVPICGGSR | -0.259 ± 1.4 |
| DMNILVLLMGDVVRLATTEW | 2.68 ± 0.17 |
| DMNLRVDLYMKFEWSGLVER | 0.109 ± 0.36 |
| DMQSEGDRGDHRGSRDCRS | 0.983 ± 1 |
| DNIYIYIPVTYFCATLRMWR | 5.09 ± 0.071 |
| DNMSVLYDTTLVFRWIWVEP | inactive |
| DNSRIYLCGSLNCFYFSDVL | 7.656 ± 0.074 |
| DNVFEALAL | inactive |
| DNYVMWVLEGLSYVLGNNRI | -0.087 ± 1 |
| DPEVIGLIVCNM | -1.16 ± 1 |
| DREIAMVWHLSYIIFYFSES | -0.993 ± 0.33 |
| DRFSYLEHDSRDRRRVE | inactive |

| Substance | amyloid nucleation score |
| --- | --- |
| DRMKTQGFCQTFNFWLGYYI | 6.97 ± 0.075 |
| DRMLLMVCIVWNRFVKGFPH | inactive |
| DRNYVGELTEFTGVMGRGRQ | -0.858 ± 1.1 |
| DRPTRLSVIFGRPP | inactive |
| DRRGRRYKVRRVCMVMESLG | 0.703 ± 0.58 |
| DRTLDDPGVHHASKAE | inactive |
| DRWWILNGTTDLSLGWVLEC | 0.648 ± 0.97 |
| DRYCGYWNGTSSCMICGRVV | 1.1 ± 0.69 |
| DSCRWGFLRVRVLGFSSVWY | -0.28 ± 0.49 |
| DSEDVVLQCEWWTRLARIEY | -0.333 ± 0.54 |
| DSGLSAMGMELRCYEYLVSW | 0.886 ± 1.1 |
| DSLVGVARDSMTSKQHNKNE | -0.112 ± 0.69 |
| DSMKN | 1.39 ± 0.13 |
| DSQMYTMH | -0.054 ± 0.71 |
| DSSMWFTASLYSYVLLSLNL | 0.73 ± 0.36 |
| DSSRSVFLWTGG | -0.994 ± 1.9 |
| DSSYKWWTYFWGA | -0.267 ± 0.42 |
| DSVLNGSFAACLDWDALPGQ | 0.272 ± 0.54 |
| DSWRSIIGFRERVSTMQYLI | 0.96 ± 0.66 |
| DSYDTTSNRAPVMLKVNYSM | -0.692 ± 0.64 |
| DTINAGWSHLEARCLRFLHV | -0.795 ± 0.38 |
| DTKNAWLILSTYLDNLFHIS | 0.976 ± 0.33 |
| DTLPRFRSRNSIVRNLSKNG | inactive |
| DVAARVQKNCPVIIGAIRSK | 0.091 ± 1.6 |
| DVEIFTISWVKEVVYRDTWA | 1.59 ± 0.7 |

| Substance | amyloid nucleation score |
| --- | --- |
| DVGCLCNNMHMILILLNYRV | 0.446 ± 0.44 |
| DVILCAK | inactive |
| DVISLTHVEKSWLVSLWKRS | -0.045 ± 0.69 |
| DVVLVYGTITGSWVQSVWEG | 0.553 ± 0.69 |
| DVVSFSKVCVVCGLSWSASY | 6.662 ± 0.06 |
| DWANSTDFV | -0.195 ± 0.18 |
| DWFWWKIVGWVRNSNMRSYS | 0.946 ± 0.6 |
| DWGERRLSRFNGAYSVVTMV | 0.599 ± 0.6 |
| DWGPTNTFGPYQINNLTCSS | -1.91 ± 1.9 |
| DWLVRGVFPYVGMLDIALTY | 0.356 ± 0.72 |
| DWNVQGQWFHQC | 0.677 ± 0.72 |
| DWPMELLASYMTPMLVTRV | inactive |
| DWRFSGALRLSLMHTYQ | 4.09 ± 0.072 |
| DWSSRVFPGSLGTKAGSHA | -1.58 ± 1.4 |
| DYDRTSFFEDSFVTD | -0.7 ± 1.1 |
| DYESSVGRSQDLAY | -0.745 ± 2.4 |
| DYRTCSCF | inactive |
| DYTILYVVWILCGIKMSVVI | 0.699 ± 0.66 |
| DYVHFMCHGLGR | -0.185 ± 0.63 |
| DYWRHSHVLHSPTKRKNRLV | 0.223 ± 0.34 |
| EACETLRLYELCLFKWERFR | 0.47 ± 0.58 |
| EAFRLCGLVRACVAFCG | 0.116 ± 0.3 |
| EAIISNCNFVIQIMCYHYTA | inactive |
| ECCWLRVTRLGLWDDVVHSE | -0.163 ± 0.33 |
| ECDYDYGTSWSQVSYVRGV | -0.773 ± 1.2 |

| Substance | amyloid nucleation score |
| --- | --- |
| ECPRVSLASGDVE | 1.17 ± 0.66 |
| ECQCFDQICEQLNSYRDQFS | 0.105 ± 0.97 |
| ECTRSGVFSCNSWIKYESSM | -0.145 ± 0.31 |
| EDKYFA | 0.323 ± 0.69 |
| EDRYGIVC | -0.25 ± 0.74 |
| EEGDAAGVVILNMQRSYG | -0.427 ± 0.41 |
| EFIIAWVWRLHNWVSGFRHS | 0.343 ± 0.35 |
| EFMYYL | -0.979 ± 1.9 |
| EFPIHQERAPSTTIHPSVSC | 0.765 ± 0.9 |
| EFRMFTLKLR | 1.13 ± 0.65 |
| EGDYNGGCCQGLLNCQ | -0.562 ± 0.56 |
| EGFITSSMALGLHFVLLGWV | -1.37 ± 1.3 |
| EGNSDCLWVGYGASMTRWVR | 0.258 ± 0.88 |
| EGQTGLLVWYGSHSVRLGNF | -0.957 ± 2.4 |
| EGRLTVE | -0.011 ± 0.32 |
| EGRSWLGTESGLYGNVREND | 0.577 ± 0.68 |
| EGSVGHRMVSWVFISYTLVL | 0.006 ± 1.1 |
| EGWPTSTLSLSRYALLGSPR | -0.486 ± 0.66 |
| EHLRFKKANNVLYVNESSSV | -1.59 ± 1.3 |
| EICMRPY | -0.081 ± 1.1 |
| EICSSESAVQKHNSPWGSDY | -1.71 ± 2.7 |
| EIGYMGLSVSIFRCVWLFIF | 0.056 ± 0.34 |
| EIKISSDGTVSMARGRWCQG | 6.615 ± 0.05 |
| EILETGRCLSFLYRIVDGCI | inactive |
| EILFFEFFKNEFLYCHKMLC | 0.902 ± 0.4 |

| Substance | amyloid nucleation score |
| --- | --- |
| EKELIK | 1.1 ± 0.61 |
| EKGFVYYTRGYLRDGLGRSQ | -0.222 ± 0.35 |
| EKILLG | -1.8 ± 2.4 |
| EKLKMVVGWVVPLSAHMQEY | 0.609 ± 0.84 |
| EKRLYGYLKDHLE | -0.605 ± 0.35 |
| EKVILHANCFCITMNRMLYH | -0.015 ± 0.39 |
| ELCAQYVIFSFASSRSYDSY | 0.579 ± 0.28 |
| ELGSGFQFVYSYS | -0.465 ± 0.46 |
| ELHTAEFNLNRM | 1.04 ± 0.73 |
| ELIHILDLVVTPGRFGRPVN | 2.58 ± 0.36 |
| ELKLLSNAFGMQGIWIRRVV | -0.113 ± 0.32 |
| ELKRGVHLRPE | 4.36 ± 0.14 |
| ELKTFTDKIGG | inactive |
| ELLYGWGIP | -0.723 ± 0.76 |
| ELTNR | 0.044 ± 0.39 |
| ELVYRMESIFCSELRVLGKF | 4.14 ± 0.15 |
| EMFHVVGSRLMPVRMVRNQC | inactive |
| EMTRLLNSCIKYQYSRQRYA | -0.97 ± 1.2 |
| EMYKSVP | 0.109 ± 0.48 |
